Results reported in the supplement of paper PMC7877785.
± gives the uncertainty stated by the source.

Assay: self-splicing fitness, log relative to wild type (ln ratio); higher = more splicing; Tetrahymena group I intron in knt gene, E. coli kanamycin selection, DiMSum; sequences stand for … in CUCUCU…GGAGGGAAAAGUUAUCAGGCAUGCACCUGGUAGCUAGUCUUUAAACCAAUAGAUUGCAUCGGUUUAAAAGGCAAGACCGUCAAAUUGCGGGAAAGGGGUCAACAGCCGUUCAGUACCAAGUCUCAGGGGAAACUUUGAGAUGGCCUUGCAAAGGGUAUGGUAAUAAGCUGACGGACAUGGUCCUAACCACGCAGCCAAGUCCUAAGUCAACAGAUCUUCUGUUGAUAUGGAUGCAGUUCACAGACUAAAUGUCGGUCGGGGAAGAUGUAUUCUUCUCAUAAGAUAUAGUCGGACCUCUCCUUAAUGGGAGCUAGCGGAUGAAGUGAUGCAACACUGGAGCCGCUGGGAACUAAUUUGUAUGCGAAAGUAUAUUGAUUAGUUUUGGAGUACUCGUGGUCG
Summary of the method: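 A randomised library covering all eight P1ex-region intron nucleotides was built with the intron in the knt kanamycin-resistance gene on pET-22b(+) and held in E. coli BL21(DE3). Cells were grown overnight at 37°C or 30°C on LB agar, with or without 25 μg/mL kanamycin, plus 100 μg/mL carbenicillin, 50 μM IPTG and 0.2% rhamnose, and pooled colonies were amplicon-sequenced on an Illumina HiSeq 2500. DiMSum fitness is the error-weighted combination of wild-type-normalised replicate fold changes, kanamycin versus none.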

| Sequence | self-splicing fitness (ln) (30 °C) | self-splicing fitness (ln) (37 °C) |
| --- | --- | --- |
| AGAUAGCAAUAUUACGCUUA | -0.901 ± 0.15 | -1.08 ± 0.13 |
| AGAUAGCAAUAUUACGCUUU | -0.847 ± 0.11 | -1.2 ± 0.16 |
| AGAUAGCAAUAUUACGGCCG | -0.583 ± 0.13 | -0.128 ± 0.23 |
| AGAUAGCAAUAUUACGGGGG | -3.43 ± 0.28 | -2.15 ± 0.29 |
| AGAUAGCAAUAUUACGGGUC | -3.73 ± 0.25 | -2.36 ± 0.25 |
| AGAUAGCAAUAUUACGGUGC | -4.21 ± 0.31 | -0.624 ± 0.15 |
| AGAUAGCAAUAUUACGUCUG | -0.398 ± 0.062 | -0.143 ± 0.076 |
| AGAUAGCAAUAUUACGUGAC | -3.44 ± 0.23 | -2.71 ± 0.48 |
| AGAUAGCAAUAUUACGUUGG | -4.65 ± 0.46 | -2.57 ± 0.2 |
| AGCAAGCAAUAUUACGAAAU | -2.42 ± 0.098 | -1.51 ± 0.12 |
| AGCAAGCAAUAUUACGAACG | -0.526 ± 0.083 | -0.449 ± 0.1 |
| AGCAAGCAAUAUUACGAAUA | -2.74 ± 0.26 | -0.872 ± 0.16 |
| AGCAAGCAAUAUUACGACUC | -1.12 ± 0.072 | -0.865 ± 0.08 |
| AGCAAGCAAUAUUACGACUG | -0.672 ± 0.077 | -0.735 ± 0.1 |
| AGCAAGCAAUAUUACGAGAA | – | -2.27 ± 0.4 |
| AGCAAGCAAUAUUACGAGGG | -3.29 ± 0.1 | -2.58 ± 0.15 |
| AGCAAGCAAUAUUACGAGGU | -3.87 ± 0.42 | -1.96 ± 0.2 |
| AGCAAGCAAUAUUACGAGUU | -2.98 ± 0.16 | -1.55 ± 0.16 |
| AGCAAGCAAUAUUACGAUCG | 0.481 ± 0.09 | -0.163 ± 0.12 |
| AGCAAGCAAUAUUACGAUUU | -0.00633 ± 0.054 | 0.677 ± 0.08 |
| AGCAAGCAAUAUUACGGAUA | -3.3 ± 0.28 | -1.77 ± 0.19 |
| AGCAAGCAAUAUUACGGGAC | -3.76 ± 0.33 | -2.24 ± 0.29 |
| AGCAAGCAAUAUUACGGGAU | -2.79 ± 0.098 | -1.15 ± 0.081 |
| AGCAAGCAAUAUUACGGGGC | -3.92 ± 0.29 | -2.89 ± 0.3 |

| Sequence | self-splicing fitness (ln) (30 °C) | self-splicing fitness (ln) (37 °C) |
| --- | --- | --- |
| AGCAAGCAAUAUUACGGGUA | -1.32 ± 0.081 | -0.594 ± 0.09 |
| AGCAAGCAAUAUUACGGUCU | -0.739 ± 0.069 | 0.0318 ± 0.085 |
| AGCAAGCAAUAUUACGGUUA | -0.707 ± 0.08 | 0.127 ± 0.08 |
| AGCAAGCAAUAUUACGGUUG | -3.23 ± 0.17 | -1.32 ± 0.16 |
| AGCAAGCAAUAUUACGUAAC | -5.08 ± 0.25 | -2.09 ± 0.14 |
| AGCAAGCAAUAUUACGUAGU | -3.18 ± 0.18 | -2.14 ± 0.19 |
| AGCAAGCAAUAUUACGUCCA | -1.62 ± 0.12 | 0.0058 ± 0.17 |
| AGCAAGCAAUAUUACGUGCC | – | -1.63 ± 0.27 |
| AGCAAGCAAUAUUACGUGCG | -1.25 ± 0.069 | -1.05 ± 0.087 |
| AGCAAGCAAUAUUACGUGGA | -2.85 ± 0.15 | -1.85 ± 0.12 |
| AGCAAGCAAUAUUACGUUCC | -1.21 ± 0.12 | -0.544 ± 0.13 |
| AGCCAGCAAUAUUACGAAAG | -3.13 ± 0.22 | -3.22 ± 0.38 |
| AGCCAGCAAUAUUACGACAG | -3.67 ± 0.27 | -2.74 ± 0.27 |
| AGCCAGCAAUAUUACGAGAG | -4.55 ± 0.27 | -3.02 ± 0.21 |
| AGCCAGCAAUAUUACGAGCG | -1.36 ± 0.095 | -0.0302 ± 0.13 |
| AGCCAGCAAUAUUACGCACU | -0.425 ± 0.094 | -0.259 ± 0.12 |
| AGCCAGCAAUAUUACGCUCU | -1.94 ± 0.1 | -0.912 ± 0.13 |
| AGCCAGCAAUAUUACGCUGA | -2.75 ± 0.16 | -1.87 ± 0.15 |
| AGCCAGCAAUAUUACGGGGG | -3.73 ± 0.24 | -1.99 ± 0.21 |
| AGCCAGCAAUAUUACGGGGU | -4.08 ± 0.19 | -2.22 ± 0.15 |
| AGCCAGCAAUAUUACGGUCC | -1.12 ± 0.081 | -0.461 ± 0.12 |
| AGCCAGCAAUAUUACGUAAG | -2.38 ± 0.057 | -1.34 ± 0.078 |
| AGCCAGCAAUAUUACGUAGU | -2.72 ± 0.12 | -1.83 ± 0.14 |
| AGCCAGCAAUAUUACGUAUG | -2.08 ± 0.089 | -3.2 ± 0.19 |
